Target: T1, FLAG-tagged Cereblon (CRBN) (human, UniProt Q96SW2-2 1-441)
T1 construct: also called FLAG-CRBN; Wnt-modulated CRBN; source: HEK293T, transfected (pcDNA3.1(+)), cells treated with PBS or Wnt3a, immunopurified from lysate on beads
Test: pull-down; FLAG-CRBN immunopurified from PBS- or Wnt3a-treated (4 h) HEK293T cells, held on BSA-blocked beads; GST-CK1α preincubated with DMSO or pyrvinium at 4 °C for 10 min, then incubated with the beads in binding buffer at 4 °C for 1 h; one 5-min wash; elution in Laemmli buffer, immunoblot
Conditions: both partners purified

T1 sequence (Q96SW2 other isoform, or with tags, fused parts or gaps): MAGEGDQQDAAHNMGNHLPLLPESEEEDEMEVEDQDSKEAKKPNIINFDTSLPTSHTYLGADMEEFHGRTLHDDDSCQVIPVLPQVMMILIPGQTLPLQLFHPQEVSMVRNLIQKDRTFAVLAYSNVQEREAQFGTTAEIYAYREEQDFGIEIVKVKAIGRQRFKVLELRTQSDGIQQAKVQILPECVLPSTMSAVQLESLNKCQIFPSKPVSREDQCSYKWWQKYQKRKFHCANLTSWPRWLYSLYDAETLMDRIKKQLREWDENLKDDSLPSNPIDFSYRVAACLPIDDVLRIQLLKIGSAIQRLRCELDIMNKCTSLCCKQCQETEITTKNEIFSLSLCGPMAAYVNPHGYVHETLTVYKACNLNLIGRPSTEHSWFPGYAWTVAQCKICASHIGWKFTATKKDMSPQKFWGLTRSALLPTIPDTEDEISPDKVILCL

binding result: binds
B1: Recombinant human glutathione-S-transferase (GST)-CK1α protein (natural protein, UniProt P48729-1 1-337, looked up)
chain: MASSSGSKAEFIVGGKYKLVRKIGSGSFGDIYLAINITNGEEVAVKLESQKARHPQLLYESKLYKILQGGVGIPHIRWYGQEKDYNVLVMDLLGPSLEDLFNFCSRRFTMKTVLMLADQMISRIEYVHTKNFIHRDIKPDNFLMGIGRHCNKLFLIDFGLAKKYRDNRTRQHIPYREDKNLTGTARYASINAHLGIEQSRRDDMESLGYVLMYFNRTSLPWQGLKAATKKQKYEKISEKKMSTPVEVLCKGFPAEFAMYLNYCRGLRFEEAPDYMYLRQLFRILFRTLNHQYDYTFDWTMLKQKAAQQAASSSGQGQQAQTPTGKQTDKTKSNMKGF
notes: Preincubated with DMSO or pyrvinium before it was added to the FLAG-CRBN beads; also called GST-tagged CK1α; recombinant CK1α; source: Sf9 insect cells, purified (GenScript)

— paper PMC9352546, “The Casein kinase 1α agonist pyrvinium attenuates Wnt-mediated CK1α degradation via interaction with the E3 ubiquitin ligase component Cereblon” (The Journal of Biological Chemistry, 2022)
